{"source": "the DeepSol protein solubility set", "assay": "soluble on expression in E. coli; label from the status in PepcDB or PDB records", "data": [{"sequence": "CIPLWGTVSIQGNRSEMEDAFAVSPHFLKLPIKMLMGDHEGMSPSLTHLTGHFFGVYDGHGGHKVADYCRDRLHFALAEEIERIKDELCKRNTGEGRQVQWDKVFTSCFLTVDGEIEGKIGRAVVGSSDKVLEAVASETVGSTAVVALVCSSHIVVSNCGDSRAVLFRGKEAMPLSVDHKPDREDEYARIENAGGKVIQWQGARVFGVLAMSRSIGDRYLKPYVIPEPEVTFMPRSREDECLILASDGLWDVMNNQEVCEIARRRILMWHKKNGAPPLAERGKGIDPACQAAADYLSMLALQKGSKDNISIIVIDLKAQRK", "values": [{"measurement": "soluble on expression in E. coli", "result": "soluble"}]}, {"sequence": "MIKFMSIASGSSGNCYYLSNGNQALLIDAGIPLRSISKALKDHQLPIEGNVVGVLVTHDHADHIRTIGCLGEKFHLPVFATERVHNGINSSRYMDHLPLLSRRNILQEETFRLAGFDITAFPIPHDATENVGYHITAPGFSFTLCTDVGHITDTISHYASKADYLVMEANYDCEMLLSGPYPEFLKERVSGPNGHLSNQETGDFLARTFHPGMKHVWLCHLSKDNNHPDLCWKSIEYRLFSEGIRVGKDMELTVLKRTSPSSLYTLLEDLEHHHHHH", "values": [{"measurement": "soluble on expression in E. coli", "result": "soluble"}]}, {"sequence": "MSSGVMVDPDVQTSFQKLSEGRKEYRYIIFKIDENKVIVEAAVTQDQLGITGDDYDDSSKAAFDKFVEDVKSRTDNLTDCRYAVFDFKFTCSRVGAGTSKMDKIIFLQICPDGASIKKKMVYASSAAAIKTSLGTGKILQFQVSDESEMSHKELLNKLGEKYGDH", "values": [{"measurement": "soluble on expression in E. coli", "result": "not soluble"}]}, {"sequence": "MVSSQKLEKPIEMGSSEPLPIADGDRRRKKKRRGRATDSLPGKFEDMYKLTSELLGEGAYAKVQGAVSLQNGKEYAVKIIEKQAGHSRSRVFREVETLYQCQGNKNILELIEFFEDDTRFYLVFEKLQGGSILAHIQKQKHFNEREASRVVRDVAAALDFLHTKDKVSLCHLGWSAMAPSGLTAAPTSLGSSDPPTSASQVAGTTGIAHRDLKPENILCESPEKVSPVKICDFDLGSGMKLNNSCTPITTPELTTPCGSAEYMAPEVVEVFTDQATFYDKRCDLWSLGVVLYIMLSGYPPFVGHCGADCGWDRGEVCRVCQNKLFESIQEGKYEFPDKDWAHISSEAKDLISKLLVRDAKQRLSAAQVLQHPWVQGQAPEKGLPTPQVLQRNSSTMDLTLFAAEAIALNRQLSQHEENELAEEPEALADGLCSMKLSPPCKSRLARRRALAQAGRGEDRSPPTAL", "values": [{"measurement": "soluble on expression in E. coli", "result": "soluble"}]}, {"sequence": "EFVINPNGKSEVCILHEYMQRVLKVRPVYNFFECENPSEPFGASVTIDGVTYGSGTASSKKLAKNKAARATLEILIPDFVKQTSE", "values": [{"measurement": "soluble on expression in E. coli", "result": "soluble"}]}, {"sequence": "MGSDKIHHHHHHMSILEVKNLSHGFGDRAIFEDVSFRLLKGEHIGLVGANGEGKSTFMSIVTGKMLPDEGKVEWSKYVTAGYLDQHSVLAERQSVRDVLRTAFDELFKAEARINDLYMKMAEDGADVDALMEEVGELQDRLESRDFYTLDAKIDEVARALGVMDFGMDTDVTSLSGGQRTKVLLAKLLLEKPDILLLDEPTNYLDAEHIDWLKRYLQNYENAFVLISHDIPFLNDVINIVYHVENQQLTRYSGDYYQFQEVYAMKKSQLEAAYERQQKEIADLKDFVARNKARVATRNMAMSRQKKLDKMDIIELQSEKPKPSFDFKPARTPGRFIFQAKNLQIGYDRPLTKPLNLTFERNQKVAIIGANGIGKTTLLKSLLGIISPIAGEVERGDYLELGYFEQEVEGGNRQTPLEAVWNAFPALNQAEVRAALARCGLTTKHIESQIQVLSGGEQAKVRFCLLMNRENNVLVLDEPTNHLDVDAKDELKRALKEYRGSILMVCHEPDFYEGWIDQIWDFNNLT", "values": [{"measurement": "soluble on expression in E. coli", "result": "not soluble"}]}, {"sequence": "RGVLEGTVRIGALPLSRTRLLPSAIAAFLAQHPGITLMTNESPYESLVADMRAGNIDFIIGALRQDEDLPDLCSEALFEEDMLILLRNNHPLLRHPDPRSQLATAQWVLPRANAPARNLLDKAFVTLGLPLPQPTVETGDAAMVR", "values": [{"measurement": "soluble on expression in E. coli", "result": "not soluble"}]}, {"sequence": "MERIERISEEIKREISDIIQNELKDPRLSKLISITEVNVTKDLRYAKVYVSVMGSEEEKANSLEGLKSAAGFIRREIGRRVQLRYTPEIHFELDNSIERGAYITKLINETSAQNKGSKDPEDT", "values": [{"measurement": "soluble on expression in E. coli", "result": "soluble"}]}, {"sequence": "MPVLNLNDPQAVERYEEFMRQSPYGQVTQDLGWAKVKNNWEPVDVYLEDDQGAIIAAMSMLLGDTPTDKKFAYASKGPVMDVTDVDLLDRLVDEAVKALDGRAYVLRFDPEVAYSDEFNTTLQDHGYVTRNRNVADAGMHATIQPRLNMVLDLTKFPDAKTTLDLYPSKTKSKIKRPFRDGVEVHSGNSATELDEFFKTYTTMAERHGITHRPIEYFQRMQAAFDADTMRIFVAEREGKLLSTGIALKYGRKIWYMYAGSMDGNTYYAPYAVQSEMIQWALDTNTDLYDLGGIESESTDDSLYVFKHVFVKDAPREYIGEIDKVLDPEVYAELVKD", "values": [{"measurement": "soluble on expression in E. coli", "result": "soluble"}]}, {"sequence": "MMRRGGQHLSPDPIGLGGGIQPQSYVHNPLEWVDPLGLTESGCKQPNSPENSQKPEVKKPNISTKIHDGAQGKHIEGHNNYVEGKSVIDAKPQELLDNYHAGNVNTSRVINENKIKVDFGDVNGTHKDMNGTNTSTSWGLIHSRKNGAHIVPALPDTILEHHHHHH", "values": [{"measurement": "soluble on expression in E. coli", "result": "not soluble"}]}, {"sequence": "GRISMTVKKLYFIPAGRCMLDHSSVNSALTPGKLLNLPVWCYLLETEEGPILVDTGMPESAVNNEGLFNGTFVEGQILPKMTEEDRIVNILKRVGYEPDDLLYIISSHLHFDHAGGNGAFTNTPIIVQRTEYEAALHREEYMKECILPHLNYKIIEGDYEVVPGVQLLYTPGHSPGHQSLFIETEQSGSVLLTIDASYTKENFEDEVPFAGFDPELALSSIKRLKEVVKKEKPIIFFGHDIEQEKSCRVFPEYI", "values": [{"measurement": "soluble on expression in E. coli", "result": "soluble"}]}, {"sequence": "MTKIFEAKVLAVGPEALSMIKDANMLILFGEEAPQDLADYCYKIDNKNLSGHIKKGGHLVINGNDCQITAVGSVVEKNLTGLGHITISLDGSKESSLPGTLHIQAEFPVQLEAGSLIQIFD", "values": [{"measurement": "soluble on expression in E. coli", "result": "soluble"}]}, {"sequence": "MTISVEKPIFEEEVSAFEKSGDNIGELKLDGGFSMPKMDTNDDEAFLAPEMNAFGRQFRDYDVESERQKGVEEFYRLQHINQTVDFVKKMRAEYGKLDKMVMSIWECCELLNEVVDESDPDLDEPQIQHLLQSAEAIRKDYPNEDWLHLTALIHDLGKVITLPQFGGLPQWAVVGDTFPVGCAFDESNVHHKYFVENPDFHNETYNTKNGIYSEGCGLNNVMMSWGHDDYMYLVAKENGSTLPSAGQFIIRYHSFYPLHTAGEYTHLMNEEDKENLKWLHVFNKYDLYSKSKVHVDVEKVKPYYMSLIKKYFPENLRW", "values": [{"measurement": "soluble on expression in E. coli", "result": "soluble"}]}, {"sequence": "GHMLWARLVGLARLEARALSKKERRSLLERLKPYYTRIPFSEKADLRLVKARTDSGEYEIITVDGVPCLFEWSDGRIYPTLQCLKAFGVDWLKGVVLVDKGAAIALAKGAHLMIPGVVGVEGSFTRGDVVAALYHETRTPVMVGVAEVDSSALEKLYREKARGRAVRRVHRLGDALWELAQEVGKRLSGS", "values": [{"measurement": "soluble on expression in E. coli", "result": "soluble"}]}, {"sequence": "MESTGSVGEAPGGPRVLVVGGGIAGLGAAQRLCGHSAFPHLRVLEATARAGGRIRSERCFGGVVEVGAHWIHGPSRGNPVFQLAAEYGLLGEKELSQENQLVETGGHVGLPSVSYASSGASVSLQLVAEMATLFYGLIDQTREFLHAAETPVPSVGEYLKKEIGQHVAGWTEDEETRKLKLAVLNSFFNLECCVSGTHSMDLVALAPFGEYTVLPGLDCTFSKGYQGLTNCMMAALPEDTVVFEKPVKTIHWNGSFQEAAFPGETFPVSVECEDGDRFPAHHVIVTVPLGFLREHLDTFFDPPLPAEKAEAIRKIGFGTNNKIFLEFEEPFWEPDCQLIQLVWEDTSPLEDAAPELQDAWFRKLIGFVVLPAFASVHVLCGFIAGLESEFMETLSDEEVLLCLTQVLRRVTGNPRLPAPKSVLRSRWHSAPYTRGSYSYVAVGSTGGDLDLLAQPLPADGAGAQLQILFAGEATHRTFYSTTHGALLSGWREADRLLSLWAPQVQQPRPRL", "values": [{"measurement": "soluble on expression in E. coli", "result": "not soluble"}]}, {"sequence": "MLCAKNKKDPKPPPASFSETSKVQNVQNTQPKPAAPSQMSIDESHSKNQKLPSAEKSVEECKKPVSPEKKKSPIKVLSEKKLKSKKKEEDKEPDEKVEKDVKKEVKADNNEPLVKNLKIAKKEQEEENPKTDLESHKDEAEAKKKESRRQKKMRNKNSKEGSVEKMEKSEKAY", "values": [{"measurement": "soluble on expression in E. coli", "result": "not soluble"}]}, {"sequence": "MGSDKIHHHHHHMNLPLQGIKVVELGQLIAGPFAAKILAEFGAEVIKVEPPLTGDPLRKWRLLHNGTSVWWAVQSRNKQSVTLDLRQPQAQEMVRRLIRDADVLVENFRPGTLEGWGLSWEDLHALNPKLIMLRVSGYGQTGPYRDRPGFGVIGEAMGGLRHLSGEVGRTPVRVGVSIGDSLAALHGVIGILLALRHREQNAGEGQQIDVALYESVFNMMESLIPEYSVFNTVREPAGSSLPGIAPTNAYRCNDGKYALIAGNGDSIYRRLMEKIGRPDLANDPQLEHNDGRVRHVARIDAAISTWTAERSLDDVLAALTDARIPAGKIYDAADIASDPHYQARDMLLQSALDDGTPVTVPGIVPKLQDTPGQIRSPAPTLGQHTDAVLQAHGIDAATREEWRRLGII", "values": [{"measurement": "soluble on expression in E. coli", "result": "not soluble"}]}, {"sequence": "MGFAPVTPAAVETYDPDVDHDDESNGLDGFRVRSKRSGKFSGGYSDSPREVGDGYGVRSRARSNMKMYGGFKSEFDSDHDSGSGFGLKRKYNGNPKVSADFDADSDDEIVLVPKATRLRTHGKPSSGDFSHGSGGGFPLKSFGDRNFASHGFKPKNFSKPEPNFSQDLDYDDEFDDDRAEREGFNPRIQSSRSSSRVNGYSRKDGSYPRNTGASNGYGSSSRFKHEQMNAAAEVESDPIDEVVSSVKMLTEMFVRVENSKMEMMREMEKSRMEMELKHCQMMLESQQQIIGAFAEALSEKKSTNARRPVS", "values": [{"measurement": "soluble on expression in E. coli", "result": "not soluble"}]}, {"sequence": "MLGTIKPNYWIRKLSTKTSYGYRIDARAYVKVVRKTYHFLWKDSEEIVIFNPNADVGGLLYIGGLEHHHHHH", "values": [{"measurement": "soluble on expression in E. coli", "result": "not soluble"}]}, {"sequence": "MKKILVTGSLGQIGSELVMKLRDVYGASNVIATDIRETDSEVVTSGPFETLDVTDGQKLHDIAKRNEVDTIIHLAALLSATAEKNPLFAWNLNMGGLVNALEAARELNCKFFTPSSIGAFGPSTPKDNTPQDTIQRPTTMYGVNKVAGELLCDYYHQKFGVDTRGVRFPGLISYVAPPGGGTTDYAVEIYYEAIKKGAYTSYIAEGTYMDMMYMPDALQAIISLMEADPSKLVHRNAFNITAMSFEPEQIAASIRKHIPTFTMDYAVDPARQTIADSWPNSIDATAAMKEWGFKAEYDLDKMTTDMLAKLKKKLTAELVMN", "values": [{"measurement": "soluble on expression in E. coli", "result": "not soluble"}]}, {"sequence": "MVSRRVQALLDQLRAQGIQDEQVLNALAAVPREKFVDEAFEQKAWDNIALPIGQGQTISQPYMVARMTELLELTPQSRVLEIGTGSGYQTAILAHLVQHVCSVERIKGLQWQARRRLKNLDLHNVSTRHGDGWQGWQARAPFDAIIVTAAPPEIPTALMTQLDEGGILVLPVGEEHQYLKRVRRRGGEFIIDTVEAVRFVPLVKGELA", "values": [{"measurement": "soluble on expression in E. coli", "result": "soluble"}]}, {"sequence": "MSGGIDSTATCLMLQEQGYEIVGVTMRVWGDEPQDARELAARMGIEHYVADERIPFKETIVKNFIDEYKQGRTPNPCVMCNPLFKFRVLAEWADKLDCAYIATGHYSRLEERSGHIYIVAGDDDKKDQSYFLWRLGQDILKRCIFPLGDYTKIKVREYLAEKGYEAKSKEGESMEVCFIQGDYRDFLREQCPELDTEIGPGWFVNSEGVKLGQHKGAPYYTIGQRKGLEIALGKPAYVLKINPQKNTVMLGDAEQLQTEYMLAEQDRIVDEQELFSCENLAVRIRYRSRPIPCRVKRLEDGRLLVRFRETASAVAPGQSAVFYDGRRVLGGAFIASQRGIGLVIIENKDKL", "values": [{"measurement": "soluble on expression in E. coli", "result": "not soluble"}]}, {"sequence": "MQYHYQWLTPFDAKRTTVVCLHGFTGTLATFAAVFPSQTPYNVLGIDLPGHGATASLVAPERYTMKQVCHDIAELTESLNLPCFCLLGYSMGARTALGFALHYPQKVQHLLLESGSPGLATAAERQARICQDHRLAERLLEEPLVDFIDFWQELPLFQTQKALSVAQQMAIRQERLSQSAFGLVSSLWYMGTGAQESYWERLAELQPIPTDLLVGGEDQKFIGIAKKMQARQPLLRLTIFPEAGHCIHLEQPTIFYEKVTALLEGAI", "values": [{"measurement": "soluble on expression in E. coli", "result": "not soluble"}]}]}
